Experimental data from the supplement of paper PMC9170038.

test system: K4 kissing-loop RNA reporter; experiment: apparent KD of K4 kissing-loop reporter; higher = weaker reporter binding; details: Eterna round: R107; input ligand: FMN 200 uM
Method: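 RNA-MaP round R107: designed RNA switches with theophylline, tryptophan, arginine or FMN aptamers are transcribed on-chip within common flanks. They are titrated with a labelled K4 kissing-loop RNA reporter in RNA-MaP buffer (100 mM Tris pH 7.5, 80 mM KCl, 4 mM MgCl2), without ligand or with the indicated ligand. Median apparent KD per design.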
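Further: bound reporter read as fluorescence of individual clusters on recovered sequencing chips by microscopy, with normalized cluster intensities fitted with a binding model.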

Row | Sequence | apparent KD of K4 kissing-loop reporter [nM]
1 | AGCGCUGCCUGAGGAUAUAGAGACGAGUGAUGUUCGUGGAUUGAUACCAGUGAUGUUGGUCUAUUUCUAGAAGGCAGGCGAUCGU [Exclusion FMN B GF 3] | 131
2 | UAGGGCAUCGCAGGAUAUCCUGCUUAACGUUGGAUUCCAGUGAUGUUGGAAAGUCGGCCUAGGGUAGGAGAAGGGCGAACUUGAA [Maxean] | 172
3 | AUGUAUGAAUUAGGAUAUCGUGAGCCAUGCAUAUAUAUGAUAAAUGGAUAUGUCGUAGUGAUGUUACGAGAAGGAGUGUGGAGUA [KL-XFMN-B2] | 69.2
4 | AGGGACUCUUCGGAGUCCCGGUCAAGGGAUACCAGUGAUGUUGGUCACCCUUGGCAGCCCAGAAACCAAGCCACCAAAGGUGGCA [Omei KL Theo A Exc A v3] | 117
5 | AGCCGAAAGGCGAGUGCUGUCACUCCGGAAGGAGCGCUCAAAAGAGCAGGUAGGUCGCCGGAGUGAUGUUCCGGUGCAGCACUCA [Omei KL Arginine A Exc B v4] | 594
6 | CCCUCACGAGUGAUGUUCGUAGGGUACAGUCAGGAUAUCAUGCGGUUGAGAAGGGACAGAGAGGGCGGCCACGGGUUGCUCCUCU [Lariusteza] | 183
7 | AUGUGGAGCGACGUUUCGGGAUAUCGGGAAGGAGCGCUGAUAACGGCAGGUAGGUCGCCUGGUCCAGUGAUGUUGGGCAUGCAUU [Exclusion Arg A GF 24] | 150
8 | CGACGCCGGUCGGCCGCCACUCACAGCAGCCAGUGAUGUUGGAUUGUAGCGGAGUGAUGUUUCGCGAGGACCGGGACUGCAGUCG [Same State Tryptophan B GF 12] | 167
9 | GGCAGUGAUGUUGCCUUCGCAAUGCAUGCAGAGGAUAUUCGUUUGGGAAGAAGGCUGCAGCGUUCUCUCGAGUGAUGUUCGGGUG [Same State FMN A GF 19] | 130
10 | UUGCCUUUGAGCGAUACCAGCAGCGUCGGCCUUAGAUUGGGAGGCAUGGCAAGUGAUGUUUGCCCUUGGCAGCGCGUAUAGUACA [theeternabot_exclusion_KL_Theo_B_7] | 197
11 | GCCUAGCAGGGAAGGAGCGCCAUAAGAAGUAAAGGAGGGAGUUGAGUGAUGUUCAAAAUGUGGCAGGUAGGUCGCCCUGCUAGGC [KL-SSArg B13] | 705
12 | UGUCAUUGGUCUGAUACCAGUCCCUUGGCAGCCUAAAGGAGUGAUGUUCCAAGGAUACCAGACCCUUGGCAGCAGACCGAUGACU [TheoBS 28 #DoubleAptamer #SwitchBubble] | 351
13 | AAGAGCCUCAAGAGGCAGUAUCUGCCUCAACGAGGACCGGUACGGCCGCCACUCGAAUAAUAGAGUGAUGUUCUAAGAGGCUCAA [AK8 SS Tryptophan A] | 710
14 | UUUCGCUUCGUCUGAUAUAAUUGGCCAGAAGGAGCGGUAGAAUUACCAGGUAGGUCGCUGGCCCAGUGAUGUUGGGACUAGCGUG [Isrianve] | 118
15 | UGAUACCAGACGGCCGCCACUACACCAGUCAAAGACUGGAUGUGAUGUUCGACCAGUGAUGUUGGUAGGACCGGGUCUGGUAUCU [TrypBX 7 #Palindromic #SwitchBubble #StaticStem] | 133
16 | UUUGGAAGCGGUGUUGAUUAGGGAGCGGAAGGAGCGCCGAGGAGGGCAGGUAGGUCGCCGGAAUGUAGUGAUGUUGCAUAGAGGU [ExArgA.Aa] | 290
17 | UGACUGGACUGAAGGAGCGCUAAACUCCUAGUGAUGUUAGGGAAACGAGACAAAGUCUCGAGGCAGGUAGGUCGCAGUCUAGUCU [FiskerMod 1 - Jieux - Same State - Arginine B] | 254
18 | CUAUCUUAAGAAGGAUAUUAUGUAACAAACGCAGGCGUAUUAGAAUCAGUGAUGUUGAAAUAGGUUUAAGAAGGUCUUAAAGAAA [theeternabot_sameState_KL_FMN_B_31] | 593
19 | ACCAAUUUACCGGCAGUAGUGAUGUUACUCCGAGGACCGGUACGGCCGCCACUCGCGAACGUAGGGUUUCUGACUCGAAGAGUCU | 191
20 | GGCAGUGAUGUUGCCAGUGGCAGAUGUGAAGGAGCGCGGUGAGACGCAGGUAGGUCGCACAUUGAAAUUGCUGUCACUAAAAUGC [#02 K4 Arginine A Exclusion] | 294
21 | AGGCGGCAUAAUUGACUGAAAAGAAAUUAACGAGGACCGGUACGGCCGCCACUCGAACACCAGUGAUGUUGGUAUGGGAUAAUUU [Exclusion Tryptophan A GF 18] | 91.6
22 | GCCGUAGAUUGAAGGAGCGGUUCAUCAAUUCAAGUCGAGUGAUGUUCGACGAUUCUCAGUAACCAGGUAGGUCGCAAUCUACGGC | 175

Row | Sequence | apparent KD of K4 kissing-loop reporter [nM]
23 | GGAGCCGAUAGUGAUACCAGCCAGUGAUGUUGGCGAAGUCUCAUUUUCGCUCUCGGUAAGGGCCCUUGGCAGCACUUACUCGGAA [Arledied] | 105
24 | CAUGAGUGAUGUUCGUGCGCUUGGUCGAAGCGAGGACCGGUACGGCCGCCACUCGCUAUGGCGGCAUCUACCAGUGAUGUUGGUG [Same State Tryptophan A GF 2] | 241
25 | UGACUGGACUGAAGGAGCGCUGAACUCCUAGUGAUGUUAGGAAAACGAGACAAAGUCUCGCGGCAGGUAGGUCGCAGUCUAGUCU | 130
26 | AAGCGUAAAAUGGCGGACAUACUGCUCCCACGAGGACCGGUACGGCCGCCACUCGAGUGCGGCAGUGAUGUUGCCGCCUUAGCGU [KL-XTryp-A20] | 92.9
27 | UUAGAUCUUCUAGAUACCAGUCUGUGUAUCAAUGAUACACUUGACUGAGUGAUGUUCAGAGGCCCUUGGCAGCUAGAAGAUCAUU [AK1 SS Theophylline B] | 761
28 | CUGACUCAAUAGUCAGUGAUGUUGACUGGACGAGGACCGGUACGGCCGCCACUCGAGAGUGGUGUAAAAUAUGUCACAGAGUCAG [Tryp A SS t3b] | 186
29 | GAUAUAUAUAGAGGAUAUAGCAGGUGAUACAAGAAAGUGAGUGAUGUUUAUGUAGAUGAUGAUAUGUUAGAAGGCUAUAUAUAUC [radioactive7-modED1598] | 844
30 | UAUGAAGGUGGAGGAUAUUGAUUGAGCCUUGGUCAGGAGUGAUGUUCCGGGAAGCCUUGGGUUCAUCGAGAAGGCCAAGGAUAGU [#09 K4 FMN B Same State] | 151
31 | UGACUGGACUGAAGGAGCGCGCGAGACAAAGUCUCGAACUCUUAGUGAUGUUAAGAAAUAACGCAGGUAGGUCGCAGUCUAGUCU | 138
32 | AAAGAGUCACUCGAAGCCAUCGAAGAUGGGCGAGGACCGGUACGGCCGCCACUCGGAGUGAUGUUCCGAAGACUGUAAAAUAAAA [MatMod 11 - Jieux - Exclusion - Tryptophan A] | 273
33 | CCGAUACAUUAUUCUACGGCCGAGAGUGAUACCAGCCGUAUUUGUGGCCCUUGGCAGCGCAGAUGCAGUGAUGUUGCAUACUUGU [Same State Theophylline A GF 20] | 68.7
34 | UUAAUAUUGUCGGCCGCCACUGGAUAGUAAUUUGUAUAAUCUAUUUCAAAGUGAUGUUUUGAGUCCAGGACCGGGACAUUUGAUA [JR_Nu_ExcTryptoB_Sub030] | 503
35 | UUUGAAAUGUCUGAUACCAGAGAAAAUAUAUGUAGUGAUGUUAUAUACAAAUUUAAUAAGCUCCCUUGGCAGCAGUAUGAAUUUU [AstrosExc-TheB#14] | 593
36 | UGUGAUGUGUAGUGUUAUGUUUUGCGGGAUACCAGAGUCUUUUUAUUCCCUUGGCAGCUUGAGUGAUGUUUGAUGCUGUUCUUGU [cxxdmullin] | 453
37 | CGCAGUGAUGUUGCUAUAUUUCUUGAUUAACGAGGACCGGUACGGCCGCCACUCGAUUUCUCUCUAAUCCACUAUGUUGUUUAGA [JR_SSTryptoA_Sub002] | 390
38 | AGACUAUCGUCAAAGACGGUAGUCAAAAGUGAGGAUAUAGUGAUGUUUAGAAGGCACUAAGACUGUAUCGAAUAGAUACGGUCAA [FmnA 1 #K4BetweenAptamer #OpenEnded] | 2120
39 | AAUAAUCUAGGUGAUACCAGCUCAACAUGAGUGAUGUUCAUGAACUAAUGUAGAGUUGAGAGCCCUUGGCAGCACCUAGAUAAUA [KL-SSTheoB6] | 873
40 | CCGCCAUCAUCAGAUACCAGACUGAUGGCGGUAACCGCCAAGCGAGUGAUGUUCGCAUCAGUCCCUUGGCAGCUGAUGAAGACUG [Theo B SS t4] | 255
41 | GGAUGGUAGGCGGCCGCCACUAAAACUGAACACAUACAAGCCAGUGAUGUUGGUAUGAUGGAGUAUAGGACCGGGCCUAGAUAGA [Exclusion - Tryptophan B (Freestyle 4)] | 452
42 | UGUGUUGUUGUGAUGUUUGGUGUUGUAGGGCAGGAUAUCGUAGAGGCGAGAAGGGCUUGUGGGCGGUAUGAGUGAUGUUUGUAGG [cfiuxmullin] | 116
43 | UGCAGUGAUGUUGCGAGUGGCAGAUACGAAGGAGCGUGGUGAGACACAGGUAGGUCGCGUAUUGAAAUUGCUGUCACUAAAAUGC [#7] | 448

same assay, conditions: Eterna round: R107; input ligand: arginine 13.2 mM

Row | Sequence | apparent KD of K4 kissing-loop reporter [nM]
44 | AGCGCUGCCUGAGGAUAUAGAGACGAGUGAUGUUCGUGGAUUGAUACCAGUGAUGUUGGUCUAUUUCUAGAAGGCAGGCGAUCGU [Exclusion FMN B GF 3] | 85.6
45 | UAGGGCAUCGCAGGAUAUCCUGCUUAACGUUGGAUUCCAGUGAUGUUGGAAAGUCGGCCUAGGGUAGGAGAAGGGCGAACUUGAA [Maxean] | 157
46 | AUGUAUGAAUUAGGAUAUCGUGAGCCAUGCAUAUAUAUGAUAAAUGGAUAUGUCGUAGUGAUGUUACGAGAAGGAGUGUGGAGUA [KL-XFMN-B2] | 73.6
47 | AGGGACUCUUCGGAGUCCCGGUCAAGGGAUACCAGUGAUGUUGGUCACCCUUGGCAGCCCAGAAACCAAGCCACCAAAGGUGGCA [Omei KL Theo A Exc A v3] | 97.9
48 | AGCCGAAAGGCGAGUGCUGUCACUCCGGAAGGAGCGCUCAAAAGAGCAGGUAGGUCGCCGGAGUGAUGUUCCGGUGCAGCACUCA [Omei KL Arginine A Exc B v4] | 408
49 | CCCUCACGAGUGAUGUUCGUAGGGUACAGUCAGGAUAUCAUGCGGUUGAGAAGGGACAGAGAGGGCGGCCACGGGUUGCUCCUCU [Lariusteza] | 259
50 | AUGUGGAGCGACGUUUCGGGAUAUCGGGAAGGAGCGCUGAUAACGGCAGGUAGGUCGCCUGGUCCAGUGAUGUUGGGCAUGCAUU [Exclusion Arg A GF 24] | 135
51 | CGACGCCGGUCGGCCGCCACUCACAGCAGCCAGUGAUGUUGGAUUGUAGCGGAGUGAUGUUUCGCGAGGACCGGGACUGCAGUCG [Same State Tryptophan B GF 12] | 131
52 | GGCAGUGAUGUUGCCUUCGCAAUGCAUGCAGAGGAUAUUCGUUUGGGAAGAAGGCUGCAGCGUUCUCUCGAGUGAUGUUCGGGUG [Same State FMN A GF 19] | 168
53 | UUGCCUUUGAGCGAUACCAGCAGCGUCGGCCUUAGAUUGGGAGGCAUGGCAAGUGAUGUUUGCCCUUGGCAGCGCGUAUAGUACA [theeternabot_exclusion_KL_Theo_B_7] | 320
